Values joined by “and” are separate entries in the source; they are usually repeats but may differ in a detail not shown here. Equal values may be shown once. Read-outs that look alike come from different tables or passages of the source.
How the values were obtained:
human PD1 on cells [1] = target: T1, human PD1 on cells (human, UniProt Q15116 25-288); experiment: cell-based or functional assay
[2] = target: recombinant human PD1 protein (human, UniProt Q15116 25-170, limits assumed); experiment: binding ELISA, plate-coated recombinant human PD1
Method: Antibodies of the invention were tested for their antigen binding activity by well-known methods such as enzyme-linked immunosorbent assay (ELISA). Briefly, Nunc Maxisorp plates (ThermoFisher) were coated with recombinant human PD1 protein in bicarbonate buffer, pH 9.4 (ThermoFisher), overnight at 4° C., using 1 μg of antigen per well (100 μL/well). After triple washing with PBS/0.05% Tween 20, plates were incubated with SuperBlock (ThermoFisher) for two hours at room temperature to block nonspecific binding. The PD1 antibodies, serially diluted three-fold with blocking buffer (PBS with 1% bovine serum albumin) were added to the plates (100 μL/well) post washing and incubated at room temperature for one hour. After another washing, antibodies were detected by incubating with a horseradish peroxidase (HRP)-conjugated goat anti-human IgG Fc antibody (ThermoFisher) diluted 1:5000 in blocking buffer (100 μL/well) for one hour at room temperature. After a final wash, TMB substrate (ThermoFisher) at 100 μL/well was added. Plates were sealed and left to incubate in dark for 5-20 minutes. The reaction was stopped by adding 2N sulfuric acid (Ricca Chemical) (50 μL/well), and the absorbance was measured at 450 nm with a plate reader. The curves were plotted, and the half-maximal effective concentration (EC₅₀) values were calculated using GraphPad Prism software.

human PD1 on cells [3] = target: T1, human PD1 on cells; experiment: cell-based or functional assay; remark: listed apart in the source
human PD1 on cells [4] = target: T1, human PD1 on cells; experiment: cell-based or functional assay; remark: listed apart in the source
human PD1 on cells [5] = target: T1, human PD1 on cells; experiment: flow cytometry on PD1+ HEK293 cells, MFI
Method: (§1) Additionally, HEK 293T cells stably expressing human PD1 gene (Crown Bioscience) was used to determine the cell-based binding strength of the optimized PD1 antibodies by flow cytometry. After harvesting, HEK293-hPD1 cells were seeded into a 96-well U-bottom plate at 1×10⁵ cells/well (100 μL), incubated with Fc block (1:50) for 20 minutes at 4° C., and subsequently washed with FACS buffer (PBS, 1% FBS). Cells were then treated with three-fold serial dilutions of each antibody at concentrations ranging from 0.01-100 nM in FACS buffer for 30 minutes at 4° C. Subsequently, cells were washed twice with FACS buffer to remove unbound molecules, and 40 µL of the 1:100 diluted PE-labeled goat anti-human Fc secondary antibody (eBiosciences) was added to the cells. Following a 30-minute incubation at 4° C. and another double wash with FACS buffer, antibodies bound to the cells were detected with PE-labeled secondary antibody by flow cytometry (BD ACCURI-C6), and EC₅₀ values were calculated using GraphPad Prism software.

human PD1 on cells [6] = target: T1, human PD1 on cells; experiment: flow cytometry on PD1+ HEK293 cells, % positive cells
Method: as §1

T1 sequence (Q15116 25-288 limits assumed): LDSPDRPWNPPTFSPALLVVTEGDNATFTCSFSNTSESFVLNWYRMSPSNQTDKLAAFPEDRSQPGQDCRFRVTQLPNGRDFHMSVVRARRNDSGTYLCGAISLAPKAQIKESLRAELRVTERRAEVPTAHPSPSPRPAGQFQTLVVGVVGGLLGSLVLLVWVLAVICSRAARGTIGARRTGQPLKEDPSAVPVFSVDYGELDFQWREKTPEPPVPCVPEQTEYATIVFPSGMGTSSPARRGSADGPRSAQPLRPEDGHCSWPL
Chain of recombinant human PD1 protein (Q15116 25-170 limits assumed): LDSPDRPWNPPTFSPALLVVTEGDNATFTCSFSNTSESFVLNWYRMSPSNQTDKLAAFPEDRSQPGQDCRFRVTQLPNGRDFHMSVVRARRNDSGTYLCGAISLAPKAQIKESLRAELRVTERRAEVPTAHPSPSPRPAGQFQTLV

B1: P-1148 (antibody, human IgG1, kappa, V domains shown)
VH: QVQLVQSGVEVKKPGASVKVSCKASGYTFTNYYMYWVRQAPGQGLEWMGGINPSNGGTNFAQKFQGRVTLTTDSSTTTAYMELKSLQFDDTAVYYCARRDYRFDMGFDYWGQGTTVTVSS
VL: EIVLTQSPATLSLSPGERATLSCRASQGVSTSGYSYLHWYQQKPGQAPRLLIYLASYRASGVPARFSGSGSGTDFTLTISSLEPEDFAVYYCQHSRDLPLTFGGGTKVEIKR
notes: Full-length IgG1 L234A/L235A/G237A, kappa
Human PD1 on cells [1]
  PD1 blocking activity (reporter assay) EC50: 1.56 nM
  PD1 blocking activity (reporter assay) Fold induction: 4.63 fold
  PD1 blocking activity (reporter assay) Vmax: 48200 RLU
[2]
  EC50: 0.093 nM

B2: P-1238 (antibody, human IgG1, kappa, V domains shown)
VH: EVQLLESGGGLVQPGGSLRLSCAASGFTFTNYYMYWVRQAPGKGLEWMGGINPSNGGTNYADKFKGRFTLSTDSSKNTLYLQMNSLRAEDTAVYYCARRDYRFDMGFDYWGQGTLVTVSS
VL: EIVLTQSPATLSLSPGERATLSCRASQGVSTSGYSYLHWYQQKPGQAPRLLIYLASYRESGVPARFSGSGSGTDFTLTISSLEPEDFAVYYCQHSRDLPLTFGGGTKVEIKR
Human PD1 on cells [3]
  PD1 blockade reporter assay EC50: 0.73 nM

B3: P-1127 (antibody, human IgG1, kappa, V domains shown)
VH: QVQLVQSGVEVKKPGASVKVSCKASGYTFTNYYMYWVRQAPGQGLEWMGGINPSNGGTNFNEKFKNRVTLTTDSSTTTAYMELKSLQFDDTAVYYCARRDYRFDMGFDYWGQGTTVTVSS
VL: EIVLTQSPATLSLSPGERATLSCRASQGVSTSGYSYLHWYQQKPGQAPRLLIYLASYRESGVPARFSGSGSGTDFTLTISSLEPEDFAVYYCQHSRDLPLTFGGGTKVEIKR
Human PD1 on cells [3]
  PD1 blockade reporter assay EC50: 0.39 nM and 0.54 nM

B4: P-1178 (antibody, human IgG1, kappa, V domains shown)
VH: EVQLLESGGGLVQPGGSLRLSCAASGFTFTNYYMYWVRQAPGKGLEWMGGINPSNGGTNYADKFKGRFTLSTDSSKNTLYLQMNSLRAEDTAVYYCARRDYRFDMGFDYWGQGTLVTVSS
VL: EIVLTQSPATLSLSPGERATLSCRASKGVSTSGYSYLHWYQQKPGQAPRLLIYLASYLESGVPARFSGSGSGTDFTLTISSLEPEDFAVYYCQHSRDLPLTFGGGTKVEIKR
Human PD1 on cells [4]
  PD1 blocking activity (reporter assay) EC50: 0.68 nM
  PD1 blocking activity (reporter assay) Fold induction: 5.5 fold
  PD1 blocking activity (reporter assay) Vmax: 53100 RLU

B5: P-1177 (antibody, human IgG1, kappa, V domains shown)
VH: EVQLLESGGGLVQPGGSLRLSCAASGFTFTNYYMYWVRQAPGKGLEWMGGINPSNGGTNYADKFKGRFTISRDNSKNTLYLQMNSLRAEDTAVYYCARRDYRFDMGFDYWGQGTLVTVSS
VL: EIVLTQSPATLSLSPGERATLSCRASKGVSTSGYSYLHWYQQKPGQAPRLLIYLASYLESGVPARFSGSGSGTDFTLTISSLEPEDFAVYYCQHSRDLPLTFGGGTKVEIKR
Human PD1 on cells [4]
  PD1 blocking activity (reporter assay) EC50: 1.51 nM
  PD1 blocking activity (reporter assay) Fold induction: 4.77 fold
  PD1 blocking activity (reporter assay) Vmax: 48100 RLU

B6: P-1175 (antibody, human IgG1, kappa, V domains shown)
VH: EVQLLESGGGLVQPGGSLRLSCAASGFTFTNYYMYWVRQAPGKGLEWVSGINPSNGGTNYADKFKGRFTISRDNSKNTLYLQMNSLRAEDTAVYYCARRDYRFDMGFDYWGQGTLVTVSS
VL: EIVLTQSPATLSLSPGERATLSCRASKGVSTSGYSYLHWYQQKPGQAPRLLIYLASYLESGVPARFSGSGSGTDFTLTISSLEPEDFAVYYCQHSRDLPLTFGGGTKVEIKR
Human PD1 on cells [3]
  decrease in Emax and fold induction compared to P-0734: 25%
  reduction in potency (EC50) compared to P-0734: 10 fold
Human PD1 on cells [4]
  PD1 blocking activity (reporter assay) EC50: 6.21 nM
  PD1 blocking activity (reporter assay) Fold induction: 4.07 fold
  PD1 blocking activity (reporter assay) Vmax: 42000 RLU

B7: P-1181 (antibody, human IgG1, kappa, V domains shown)
VH: EVQLLESGGGLVQPGGSLRLSCAASGFTFTNYYMYWVRQAPGKGLEWVSGINPSNGGTNFNDSVKGRFTISRDNSKNTLYLQMNSLRAEDTAVYYCARRDYRFDMGFDYWGQGTLVTVSS
VL: EIVLTQSPATLSLSPGERATLSCRASKGVSTSGYSYLHWYQQKPGQAPRLLIYLASYLESGVPARFSGSGSGTDFTLTISSLEPEDFAVYYCQHSRDLPLTFGGGTKVEIKR
Human PD1 on cells [3]
  drop in potency compared to P-0734: 15 fold
Human PD1 on cells [4]
  PD1 blocking activity (reporter assay) EC50: 9.18 nM
  PD1 blocking activity (reporter assay) Fold induction: 3.26 fold
  PD1 blocking activity (reporter assay) Vmax: 29600 RLU

B8: P-1176 (antibody, human IgG1, kappa, V domains shown)
VH: EVQLLESGGGLVQPGGSLRLSCAASGFTFTNYYMYWVRQAPGKGLEWVSGINPSNGGTNYADKFKGRFTLSTDSSKNTLYLQMNSLRAEDTAVYYCARRDYRFDMGFDYWGQGTLVTVSS
VL: EIVLTQSPATLSLSPGERATLSCRASKGVSTSGYSYLHWYQQKPGQAPRLLIYLASYLESGVPARFSGSGSGTDFTLTISSLEPEDFAVYYCQHSRDLPLTFGGGTKVEIKR
Human PD1 on cells [4]
  PD1 blocking activity (reporter assay) EC50: 0.67 nM
  PD1 blocking activity (reporter assay) Fold induction: 5.27 fold
  PD1 blocking activity (reporter assay) Vmax: 52100 RLU

B9: P-1129 (antibody, human IgG1, kappa, V domains shown)
VH: QVQLVQSGVEVKKPGASVKVSCKASGYTFTNYYMYWVRQAPGQGLEWMGGINPSNGGTNFNEKFKNRVTLTTDSSTTTAYMELKSLQFDDTAVYYCARRDYRFDMGFDYWGQGTTVTVSS
VL: EIVLTQSPATLSLSPGERATLSCRASQGVSTSGYSYLHWYQQKPGQAPRLLIYLASYRASGVPARFSGSGSGTDFTLTISSLEPEDFAVYYCQHSRDLPLTFGGGTKVEIKR
Human PD1 on cells [3]
  PD1 blockade reporter assay EC50: 0.58 nM

B10: P-1198 (antibody, human IgG1, kappa, V domains shown)
VH: EVQLLESGGGLVQPGGSLRLSCAASGFTFTNYYMYWVRQAPGKGLEWVSGINPSNGGTNFADKFKGRFTISRDSSKNTLYLQMNSLRAEDTAVYYCARRDYRFDMGFDYWGQGTLVTVSS
VL: EIVLTQSPATLSLSPGERATLSCRASQGVSTSGYSYLHWYQQKPGQAPRLLIYLASYRESGVPARFSGSGSGTDFTLTISSLEPEDFAVYYCQHSRDLPLTFGGGTKVEIKR
notes: as for B1
Human PD1 on cells [5]
  EC50: 0.087 nM
Human PD1 on cells [6]
  EC50: 0.019 nM

B11: P-1174 (antibody, human IgG1, kappa, V domains shown)
VH: QVQLVQSGVEVKKPGASVKVSCKASGYTFTNYYMYWVRQAPGQGLEWMGGINPSNGGTNFAQKFQGRVTLTTDSSTTTAYMELKSLQFDDTAVYYCARRDYRFDMGFDYWGQGTTVTVSS
VL: EIVLTQSPATLSLSPGERATLSCRASQGVSTSGYSYLHWYQQKPGQAPRLLIYLASYRESGVPARFSGSGSGTDFTLTISSLEPEDFAVYYCQHSRDLPLTFGGGTKVEIKR
Human PD1 on cells [3]
  PD1 blockade reporter assay EC50: 0.67 nM

B12: P-1150 (antibody, human IgG1, kappa, V domains shown)
VH: QVQLVQSGVEVKKPGASVKVSCKASGYTFTNYYMYWVRQAPGQGLEWMGGINPSNGGTNFAQKFQGRVTLTTDSSTTTAYMELKSLQFDDTAVYYCARRDYRFDMGFDYWGQGTTVTVSS
VL: EIVLTQSPATLSLSPGERATLSCRASQGVSTSGYSYLAWYQQKPGQAPRLLIYLASYRASGVPARFSGSGSGTDFTLTISSLEPEDFAVYYCQHSRDLPLTFGGGTKVEIKR
notes: as for B1
Human PD1 on cells [1]
  PD1 blocking activity (reporter assay) EC50: 5.55 nM
  PD1 blocking activity (reporter assay) Fold induction: 3.49 fold
  PD1 blocking activity (reporter assay) Vmax: 36500 RLU
[2]
  EC50: 0.088 nM

B13: P-1153 (antibody, human IgG1, kappa, V domains shown)
VH: QVQLVQSGVEVKKPGASVKVSCKASGYTFTNYYMYWVRQAPGQGLEWMGGINPSNGGTNYAQKFQGRVTLTTDSSTTTAYMELKSLQFDDTAVYYCARRDYRFDMGFDYWGQGTTVTVSS
VL: EIVLTQSPATLSLSPGERATLSCRASQGVSTSGYSYLAWYQQKPGQAPRLLIYLASYRASGVPARFSGSGSGTDFTLTISSLEPEDFAVYYCQHSRDLPLTFGGGTKVEIKR
notes: as for B1
Human PD1 on cells [3]
  decrease in PD1 blockade potency (EC50) compared to P-0734: ~20 fold
Human PD1 on cells [1]
  PD1 blocking activity (reporter assay) EC50: 9.88 nM
  PD1 blocking activity (reporter assay) Fold induction: 3.04 fold
  PD1 blocking activity (reporter assay) Vmax: 30800 RLU
[2]
  EC50: 0.11 nM

B14: P-1151 (antibody, human IgG1, kappa, V domains shown)
VH: QVQLVQSGVEVKKPGASVKVSCKASGYTFTNYYMYWVRQAPGQGLEWMGGINPSNGGTNYAQKFQGRVTLTTDSSTTTAYMELKSLQFDDTAVYYCARRDYRFDMGFDYWGQGTTVTVSS
VL: EIVLTQSPATLSLSPGERATLSCRASQGVSTSGYSYLHWYQQKPGQAPRLLIYLASYRASGVPARFSGSGSGTDFTLTISSLEPEDFAVYYCQHSRDLPLTFGGGTKVEIKR
notes: as for B1
Human PD1 on cells [1]
  PD1 blocking activity (reporter assay) EC50: 2.83 nM
  PD1 blocking activity (reporter assay) Fold induction: 4.15 fold
  PD1 blocking activity (reporter assay) Vmax: 44300 RLU
[2]
  EC50: 0.065 nM
